Assay results taken from the DeepSol protein solubility set.

Assay: soluble on expression in E. coli; label from the status in PepcDB or PDB records

| Sequence | soluble on expression in E. coli |
| --- | --- |
| MSLEFQNLANRILDEKSRSFSQSNQTALETLLKPFREQIEGFQKRVNEIHSESVKGNAGLEAEIKKVLEIGLNMSQEASNLTSALKGEKKTLGNWGEVQLERALQLAGLEENVHYRAQAHFKDEQGGRNYPDFVLNLPDEKHLIIDSKMSLVAYESAVNSEDDFERERLLKEHISALKTHINDLHKKDYSNLIGMCSPNFVLMFIAVEPAYIEALKADPALFNYGYERNVIMVSHTTLMPILRTVANLWRIERGNAEAKEIAEKAGEIYNQICLVAERLNKLGNTLSTVSNQYNSTVTALVGQQGLVGKVERFKTLSAKANKTMPDVDLLNNQLDLARLNVLNQENLQEGHHHHHH | soluble |
| MFGLKVKNAEADTAKSNEKLQGAEATGSSTTSGSGQSTQRGGSSGDTKVKALQVAVKKKSGSQGNSGDQGTEQVELESNDLANAPIKRGSNPASPTQGSRLRHHPIQFGIWSIRHPHPLKAVACDRANSQGPPQMIRLDPHSVRCALCL | soluble |
| MSLEKYGNVNDFLDDDLVKNGNPDVYIVVGENSATPDVTSANKISAKIGTMTYTEKVVEDTSTTGYQIIGESESINLLDGTDKLDSAGTKKSWILVIGADDSYSDYFDDDEGNSFSYSEFSEADKTRSLGELGYLLKLYDIDPKNHFESDDDASELVFVRITDSDKNANSQTYNIEKDMVYVSIVYPNQISAFKLAKELEEGYEIPFLGDKYRIVKIDEDDDIIYLGTASYEGTIAHNEYISSGEYQVVLGEILENEDEYRVEISVLRNGNMIEEHTETEGHHHHHH | soluble |
| MAHHHHHHSLTTVGLELINVSSSWDEGIVELFEKIKRENKANGQLTGDDGLFFTNLYVTPVLKNINLRLEEGMMLAVAGSTGSGKSSLLMMILGELVPSEGKIRHSGRISYSPQTSWIMPGTIRDNILFGLTYDEFRYTSIIRACQLEEDLDLLPEKDKTAIAEGGVTLSGGQRARICLARAVYKDADLYLLDAPFTHLDIATEKEIFDKCVCKLIASKTRVVVTSKLEHLKRADRILLLHNGDCYFYGTFSELQAQRPDFSSLLLGLGSYDNISAERRSSILTETLRRVSVDETAGFRGEG | soluble |
| MSLLPGPLLIPSDSSTELTQTVLEGESISCFQVGGEKRLCLPQVLNSVLREFTLQQINTVCDELYIYCSRCTSDQLHILKVLGILPFNAPSCGLITLTDAQRLCNALLRPRTFPQNGSVLPAKSSLAQLKETGSAFEVEHECLGKCQGLFAPQFYVQPDAPCIQCLECCGMFAPQTFVMHSHRSPDKRTCHWGFESAKWHCYLHVNQKYLGTPEEKKLKIILEEMKEKFSMRSGKRNQSKTDAPSGMELQSWYPVIKQEGDHVSQTHSFLHPSYYLYMCDKVVAPNVSLTSAVSQSKELTKTEASKSISRQSEKAHSSGKLQKTVSYPDVSLEEQEKMDLKTSRELCSRLDASISNNSTSKRKSESATCNLVRDINKVGIGLVAAASSPLLVKDVICEDDKGKIMEEVMRTYLKQQEKLNLILQKKQQLQMEVKMLSSSKSMKELTEEQQNLQKELESLQNEHAQRMEEFYVEQKDLEKKLEQIMKQKCTCDSNLEKDKEAEYAGQLAELRQRLDHAEADRQELQDELRQEREARQKLEMMIKELKLQILKSSKTAKEEGHHHHHH | not soluble |
| MNRYITRGIANNLPNILQHQLWQLVSEREQEQTKDNTLVDYFHIFQFNTHRNQLYIKHKQERPAYVKTQKANINQPININKVYIIREDDVDLSYYIMLLPNEYLEHHHHHH | soluble |
| MGSSHHHHHHGGTGENLYFQGGSGDLLHFISLVIDLRDYPGYATCIRATEYPGLALCEYNAVAGMRYTVPLGYAASAVYFYLYHRPRLSFADRSLTKLHHYFYPSAGYSTPLGIIGGVICGAAECVQGLTPAALEATAAREKAAAVMAAEQYSQRHRAVKERLKAEQSFASKALAWLQLCEDPVQAELARMGLGEDSIAWETLLVPQGYLWTQLHSVVHDPARYRGYEAPVATGAAVPTSADERLSQPSGGANTPCPSPSGVLSLSRAYFTKPQVDAVVSRIGTLRTSPEEDRWMRSAGRCGAYGVFGMLLTWNSGGALFRAQMGLGLGVVIAGLASATRLDEVFAHL | not soluble |
| MSHHHHHHAGIFTFEEPVTHVSESIGIMEVKVLRTSGARGNVIVPYKTIEGTARGGGEDFEDTCGELEFQNDEIVKIITIRIFDREEYEKECSFSLVLEEPKWIRRGMKGGFTITEEYDDKQPLTSKEEEERRIAEMGRPILGEHTKLEVIIEESYEFKSTVD | soluble |
| MFADLDYDIEEDKLGIPTVPGKVTLQKDAQNLIGISIGGGAQYCPCLYIVQVFDNTPAALDGTVAAGDEITGVNGRSIKGKTKVEVAKMIQEVKGEVTIHYNKLQADPKQLEVLFNGPGIESVKI | soluble |
| MGSDKIHHHHHHMKKMKIGTQNQAFFPENILEKFRYIKEMGFDGFEIDGKLLVNNIEEVKAAIKETGLPVTTACGGYDGWIGDFIEERRLNGLKQIERILEALAEVGGKGIVVPAAWGMFTFRLPPMTSPRSLDGDRKMVSDSLRVLEQVAARTGTVVYLEPLNRYQDHMINTLADARRYIVENDLKHVQIIGDFYHMNIEEDNLAQALHDNRDLLGHVHIADNHRYQPGSGTLDFHALFEQLRADNYQGYVVYEGRIRAEDPAQAYRDSLAWLRTC | not soluble |
| MSLSRRGRPKIPRFISEEPKFRIFKPHGVSLTEVDKVILSVDELEAIRLVDYLDYTQEEASKLMGISRRVLWSLLTEGRKKIADALINGKAIVIEGGEYKIRECGFCMRHRFGIKKHCRTWREELEGHHHHHH | not soluble |
| MGHHHHHHSHMKIELSMQPWNPGYSSEGATAQETYTCPKMIEMEQAEAQLAELDLLASMFPGENELIVNDQLAVAELKDCIEKKTMEGRSSKVYFTINMNLDVSDEKMAMFSLACILPFKYPAVLPEITVRSVLLSRSQQTQLNTDLTAFLQKHCHGDVCILNATEWVREHASGYVSRDTSSSPTTGSTVQSVDLIFTRLWIYSHHIYNKCKRKNILEWAKELSLSGFSMPGKPGVVCVEGPQSACEEFWSRLRKLNWKRILIRHREDIPFDGTNDETERQRKFSIFEEKVFSVNGARGNHMDFGQLYQFLNTKGCGDVFQMFFGVEGQ | not soluble |
| MSWRYSILTVDGSFKIFIPWEIFLTWNFLSAAWLNSTESNTYIHYSTCWGTSDYTLNISVIEATTEKLVDTRLLTTLENATAWINSNSIDEDEDDMPHATNVADRLDGLSLSKRVYSICHYEF | not soluble |
| GMFVQSALHQLKVAVDTSIQMLDQYTEIDLKIAPIQSKRSLFEMYAHLSLICHADLLILNGSTEKELHTFYKEQTPETIAQMQKTMIQGYDLLSKTFLSYSNEQLAEMKTAYWGISYSRFEWLLEIVAHFYHHRGQIHILLCEHMKDPNIPLFQ | soluble |
| GSSGGPNVPELILQLLQLEPEEDQVRARIVGCLQEPAKSRSDQPAPFSLLCRMADQTFISIVDWARRCMVFKELEVADQMTLLQNSWSELLVLDHIYRQVQYGKEDSILLVTGQEVELSTVAVQAGSLLHSLVLRAQELVLQLHALQLDRQEFVCLKFLILFSLDVKFLNNHSLVKDAQEKANAALLDYTLSHYPHSGDKFQQLLLSLVEVRALSMQAKEYLYHKHLGNEMPRNNLLIEMLQAKQT | soluble |
| MSAAQYARLVPKKYRSKTLPKIDRPWRPRVIAWAGPAAFYPNRFYEVDKWYKARIDKPEKLPEMHIIEPAEHMKSLKVLMQKSEIEQINIGFKRREVAGKAEKSAEDRIELERKSRHMQLKIDIDHLDVENLSIYRHFQVFDHLFGDNIFFENVQNLQVNFENDIVVHSGNVITANSTLKRPEITIESVGNGGGFNTLLMINLDGNALDLGKNGEIVQWMISNIPDGEAISAGSEIIDYLQPLPFYGTGYHRVAFVLFRHEKPVDFQIQGNSLDTRIHEISKFYKKHEATITPSAIRFFQTSYDNSVKMALHGLGMTSPLYEYEHRPALKPAQREFPEKPQPFDLYLDMYRDPKEVEQEMLEKRLAEVKLDYVKEPKWVDTDYVENKKKLPAWLHAKKLERDGVGHAKYHNDL | not soluble |
| MGSDKIHHHHHHMVTYVIQGILKEEEDRMVRRSFLIKGNEIAYVNGRLDKLTFIRMNGDQFCMAPGRVMNNDELETNLSISSFKKTLTSMIEKGCTSVVYFASANYERQLPFVIKQAYHRMNNSFIDYVIGLSLPAHLLRPSVLRFCKKEKIPVLRFSLQSIDDLYDVPWSRLQDVLYSYPIVLLPNMNELLEGERKLAEDLWVSLCEAHRIYGTTHPPNSLEAWPKTLLKLVGLYPKKGELRVGGDADYLLYYVARTNATLAETCDLDYDRDKPNVVVLRGSVLKANEVTSIRPGGGRRIRITRPGQFIPVSEASHWGM | not soluble |
| MGSDKIHHHHHHMSVVIEFDKVSRQFVRRQNASTIQERFMGLIRGLPPAEAFWAVRDVSFAVEEGQSIGLVGHNGAGKSTILKLMTRVLEPTSGRVTTQGRIAALLELGSGFHPELSGRENVFLYGSLMGFGRKEMQRKLPEIIEFSEIGPFLDTEVKHYSSGMYTRLAFAVATAVDPDILITDEVLAVGDETFQRKCIDRIYGFRRAGKTIVFVSHALDVVRSLCDVAVWLDHGEMKAYGEAGKVVDAYLADVNERERAEFEERLHSEDDDQIRESRMRRGSREVEITRVQLLDAQGRERITFRTHEPLTIRIHYLAHQRIERPVFGVGINHESGPWLTGPNTGFDKYHIPFIEGAGIIDYHIPRLPFLGGRYLVSASATDSTQLYEFDVHDRMYPLVIHSDGLSQRYGMVFCEGNWSWHG | not soluble |
| GMDDLTNLAARLRLLEDREEIRELIARYGPLADSGDAEALSELWVEDGEYAVVGFATAKGRAAIAALIDGQTHRALMADGCAHFLGPATVTVEGDTATARCHSVVFRCVSGTFGSHRVSANRWTFRRTPAGWRAVRRENALLDGSAAARALLQFR | soluble |
